Data taken from article PMC5114850.

Biological target: recombinant human calmodulin (human), P0DP23
Test: ITC
Conditions: remark: other sources report otherwise

Binder: Ac-SQSHPVMKAFCGLLLQSS-NH2 [CaMBP1 peptide of zebrafish STRA6]
- Kd: 1.68 µM
- dH: -30.5 kJ/mol
- stoichiometry N: 0.99 sites
